The record followed here is patent US20130273567A1, “Screening Method for Candidate Agonist Compounds for Adiponectin Receptor I” (priority 2010, published 2013).

Assay [1] addresses T1, AdipoR1 (Mus musculus, UniProt Q91VH1).
T1 sequence (Q91VH1 1-375): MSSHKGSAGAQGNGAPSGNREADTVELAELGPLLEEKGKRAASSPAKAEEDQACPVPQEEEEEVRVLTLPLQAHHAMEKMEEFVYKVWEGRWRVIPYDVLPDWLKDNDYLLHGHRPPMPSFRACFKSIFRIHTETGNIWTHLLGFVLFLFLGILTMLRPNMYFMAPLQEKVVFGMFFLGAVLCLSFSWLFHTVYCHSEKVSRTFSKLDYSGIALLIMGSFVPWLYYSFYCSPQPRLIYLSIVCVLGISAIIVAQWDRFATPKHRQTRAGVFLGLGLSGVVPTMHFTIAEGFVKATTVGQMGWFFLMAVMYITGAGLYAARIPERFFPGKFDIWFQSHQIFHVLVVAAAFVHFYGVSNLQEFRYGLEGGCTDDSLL
Kind of assay: Patch clamp test, whole-cell current of C2C12 myocytes. Format: cell-based. Also noted: endogenous in cells; host or cells: mouse C2C12 myocytes (differentiated from myoblasts). To be noted: holding potential -60 mV, adiponectin 30 μg/ml 30 sec. As for the experimental part:
Whole-cell currents were amplified with a patch-clamp amplifier (CEZ-2400; Nihon Kohden) and were digitized with a PowerLab digitizer (AD Instruments). Ringer's solution was used for the extracellular solution. The electrode solution contained 140 mM KCl, 10 mM HEPES, 5 mM EGTA-2K, and 10 mM D-glucose (pH 7.4). The data were low-pass filtered at 2 kHz and were sampled at 20 kHz. Ligands dissolved in Ringer's solution were applied at least twice with a self-made pressure-ejection system and via a two-barreled glass capillary.

For assay [2], the system named is C2C12 myocytes. Kind of assay: NAD+/NADH measurements in C2C12 myocytes. It is filed as cell-based, mouse. The settings on record: C2C12 myocytes treated with adiponectin. As for the experimental part: NAD^+ and NADH nucleotides were directly measured by the method described in the following document (Nature, 458, 1056-1060 (2009)). Whole skeletal muscles or two 10 cm dishes of C2C12 myocytes were homogenized in 200 μl of an acid extraction buffer to measure the NAD^+ concentration, or 200 μl of alkali extraction to obtain the NADH concentration. Next, homogenates were neutralized and the concentration of nucleotides was measured fluorimetrically after an enzymatic cycling reaction using 5 μl of a sample. Values for both nucleotides were detected within the linear range. NAD^+/NADH ratios were calculated by comparing the ratios obtained from each animal or from parallel cell dishes in each experiment.

The target of assay [3] is T2, mAdipoR1 (Mus musculus, UniProt Q91VH1).
T2 construct: expressed in transfected cells; host or cells: Xenopus oocytes (stage V to VII) injected with cRNA
T2 sequence (Q91VH1 1-375): T1 sequence (Q91VH1 1-375)
Kind of assay: Xenopus oocytes injected with AdipoR1 cRNA, two-electrode voltage clamp recording. Format: cell-based. As for the experimental part:
Stage V to VII oocytes were treated with 2 mg/ml of collagenase S-1 (Nitta gelatin) in calcium ion-free saline solution (82.5 mM NaCl, 2 mM KCl, 1 mM MgCl2, and 5 mM HEPES, pH 7.5) for 1 to 2 hr at room temperature. The resulting oocytes were then microinjected with 50 ng of cRNA for mAdipoR1. The cRNA was synthesized from linearized modified pSPUTK. The injected oocytes were incubated for 3 days at 18° C. in a bath solution (88 mM NaCl, 1 mM KCl, 0.3 mM Ca(NO3)2, 0.4 mM CaCl2, 0.8 mM MgSO4, 2.4 mM NaHCO3, 15 mM HEPES, pH 7.6) supplemented with 10 μg/ml of penicillin and streptomycin.
Whole cell currents were recorded with a two-electrode voltage clamp technique. Intracellular glass electrodes were filled with 3M KCl. Signals were amplified with an OC-725C amplifier (Warner Instruments), low-pass filtered at 50 Hz, and digitized at 1 kHz. A control bath solution contained 115 mM NaCl, 2.5 mM KCl, 1.8 mM CaCl2, and 10 mM HEPES. It was titrated to pH 7.2 with NaOH. A calcium ion free solution containing 1.8 mM BaCl2 instead of CaCl2 was used. The inward current was monitored at a holding potential of −80 mV. Calcium ion activated Cl^− current was monitored by applying 500-mscc depolarizing pulses of +100 mV and +50 mV from the holding potential of −80 mV. Adiponectin was supplied to the superfusing bath solution via a silicon tube connected to computer-driven solenoid valves. Data acquisition and analysis were carried out using Digidata 1322A and pCLAMP software.
A general note: Two-electrode voltage clamp is typically applied to oocytes expressing channels or transporters.

Assay [4] relates to AMPK. Kind of assay: AMPK phosphorylation in vivo (skeletal muscle and liver, immunoblotting). More on the design: species or system mice. To be noted: adiponectin 30 μg per 10 g body weight, 10 min. As for the experimental part: (§1) Mouse full-length adiponectin was generated as described in the following documents (Nature Med. 8, 1288-1295 (2002); Nature Med. 7, 941-946 (2001); Nature 423, 762-769 (2003)).
Real-time PCR was carried out according to the method described in the following documents (Nature Med. 13, 332-339 2007); Nature 423, 762-769 (2003); J. Biol. Chem. 281, 8748-8755 (2006)). Total RNA was prepared from cells or tissues by using Trizol (Invitrogen) according to the manufacturer's instructions. Quantification of mRNA was conducted using a real-time PCR method (Nature 423, 762-769 (2003)) with slight modifications. The procedures used for immunoblotting are described in the following documents (Nature Med. 7, 941-946 (2001); J. Biol. Chem. 281, 26602-26614 (2006); J. Biol. Chem. 281, 8748-8755 (2006)). The livers or muscles were freeze-clamped in liquid nitrogen in situ (Nature Med. 7, 941-946 (2001); J. Biol. Chem. 281, 26602-26614 (2006); J. Biol. Chem. 281, 8748-8755 (2006)).
On the technique in general: A western blot detects proteins with antibodies after separation by electrophoresis.

In assay [5] the test system is AMPK. Kind of assay: AMPK phosphorylation in C2C12 myocytes (immunoblotting). It is filed as cell-based, mouse. To be noted: C2C12 myocytes, adiponectin 30 μg/ml. As for the experimental part: The mouse C2C12 myoblasts were grown in 90% Dulbecco's modified high glucose Eagle's medium containing 10% (v/v) fetal bovine serum. When the cells reached 80% confluent, the myoblasts were induced to differentiate into myocytes by replacing the medium with a low serum differentiation medium (98% Dulbecco's modified high glucose Eagle's medium, 2.5% (v/v) horse serum). The medium was changed daily. The C2C12 cells were transfected by using Pofectamine 2000 (Invitrogen) and following the manufacturer's instructions.

In assay [6] the test system is CaMKI. Kind of assay: CaMKI phosphorylation in skeletal muscle in vivo. More on the design: species or system mice. The settings on record: adiponectin 30 μg per 10 g body weight, 5 min; via AdipoR1.
Text: as §1

B1: adiponectin: recombinant murine full-length adiponectin, internal ligand of adiponectin receptor 1 (protein, UniProt Q60994 1-247, looked up)
chain: MLLLQALLFLLILPSHAEDDVTTTEELAPALVPPPKGTCAGWMAGIPGHPGHNGTPGRDGRDGTPGEKGEKGDAGLLGPKGETGDVGMTGAEGPRGFPGTPGRKGEPGEAAYVYRSAFSVGLETRVTVPNVPIRFTKIFYNQQNHYDGSTGKFYCNIPGLYYFSYHITVYMKDVKVSLFKKDKAVLFTYDQYQEKNVDQASGSVLLHLEVGDQVWLQVYGDGDHNGLYADNVNDSTFTGFLLYHDTN
modifications: full-length
In the case of B1, in assay [1], the “whole-cell inward current responses” value is “observed”. In addition, in assay [2], the “NAD+ and NADH contents” value is reported as “increased”; the “NAD+/NADH ratio” value was “increased”. For the same molecule, in assay [3] (control oocytes (no AdipoR1 cRNA), adiponectin 30 μg/ml), the “calcium-ion activated Cl- current response” value is “not observed”. Besides, the inward current responses result in assay [3] (oocytes expressing AdipoR1, holding potential -80 mV, adiponectin 30 μg/ml 30 sec) was “induced”. Further, in assay [3] (oocytes injected with AdipoR1 complementary RNA, adiponectin 30 μg/ml), the “intracellular calcium levels by calcium-ion activated Cl- current” value was “increase”. The “phosphorylation of AMPK in liver” value in assay [4] (both genotypes (control and muscle-R1KO)) is recorded as “increased”. Further, in assay [4] (control littermates), the “phosphorylation of AMPK in muscle” value was “increased”. Also, the “phosphorylation of AMPK α-subunits at Thr 172” value in assay [5] was “increased”. In addition, the “phosphorylation of CaMKI in skeletal muscle in vivo” value in assay [6] is “significantly increased”.
